Assay results published in paper PMC8897147 (Acta Pharmaceutica Sinica. B, 2021).

T1: GHRHR (Homo sapiens, UniProt Q02643)
T1 sequence (Q02643 23-423): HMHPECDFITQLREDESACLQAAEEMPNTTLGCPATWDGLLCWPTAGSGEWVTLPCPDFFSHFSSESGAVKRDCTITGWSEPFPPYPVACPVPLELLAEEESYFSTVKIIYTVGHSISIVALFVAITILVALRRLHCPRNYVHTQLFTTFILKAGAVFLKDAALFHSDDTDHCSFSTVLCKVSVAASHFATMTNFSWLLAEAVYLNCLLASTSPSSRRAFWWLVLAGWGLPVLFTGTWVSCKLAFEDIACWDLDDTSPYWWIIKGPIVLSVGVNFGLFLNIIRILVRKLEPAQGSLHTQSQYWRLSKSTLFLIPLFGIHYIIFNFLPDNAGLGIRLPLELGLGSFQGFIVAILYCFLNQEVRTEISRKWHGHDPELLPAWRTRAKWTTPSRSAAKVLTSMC

T2: SV1 (Homo sapiens, UniProt Q02643)
T2 sequence (Q02643 90-423 limits assumed): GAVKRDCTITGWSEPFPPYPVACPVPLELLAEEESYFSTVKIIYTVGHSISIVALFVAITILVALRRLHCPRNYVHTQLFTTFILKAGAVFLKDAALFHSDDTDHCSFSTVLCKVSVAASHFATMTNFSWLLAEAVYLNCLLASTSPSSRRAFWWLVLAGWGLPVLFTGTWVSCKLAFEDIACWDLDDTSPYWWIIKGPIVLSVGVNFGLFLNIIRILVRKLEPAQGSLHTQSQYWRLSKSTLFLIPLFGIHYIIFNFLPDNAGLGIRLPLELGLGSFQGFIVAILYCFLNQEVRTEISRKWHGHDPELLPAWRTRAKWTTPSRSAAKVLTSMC

T3: GIPR (Homo sapiens, UniProt P48546)
T3 sequence (P48546 22-466): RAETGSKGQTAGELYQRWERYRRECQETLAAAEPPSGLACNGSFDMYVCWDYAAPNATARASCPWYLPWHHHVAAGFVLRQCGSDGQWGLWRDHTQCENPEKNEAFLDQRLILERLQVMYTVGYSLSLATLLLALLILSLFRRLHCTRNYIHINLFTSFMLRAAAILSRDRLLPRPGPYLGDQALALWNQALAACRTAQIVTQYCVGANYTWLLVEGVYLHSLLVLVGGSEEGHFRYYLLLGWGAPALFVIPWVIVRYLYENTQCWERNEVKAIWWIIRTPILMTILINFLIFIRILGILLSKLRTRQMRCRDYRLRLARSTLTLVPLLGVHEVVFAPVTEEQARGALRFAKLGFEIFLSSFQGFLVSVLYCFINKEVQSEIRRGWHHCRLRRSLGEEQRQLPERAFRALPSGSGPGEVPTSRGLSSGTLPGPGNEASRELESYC

T4: GLP-2R (Homo sapiens, UniProt O95838)
T4 sequence (O95838 1-553): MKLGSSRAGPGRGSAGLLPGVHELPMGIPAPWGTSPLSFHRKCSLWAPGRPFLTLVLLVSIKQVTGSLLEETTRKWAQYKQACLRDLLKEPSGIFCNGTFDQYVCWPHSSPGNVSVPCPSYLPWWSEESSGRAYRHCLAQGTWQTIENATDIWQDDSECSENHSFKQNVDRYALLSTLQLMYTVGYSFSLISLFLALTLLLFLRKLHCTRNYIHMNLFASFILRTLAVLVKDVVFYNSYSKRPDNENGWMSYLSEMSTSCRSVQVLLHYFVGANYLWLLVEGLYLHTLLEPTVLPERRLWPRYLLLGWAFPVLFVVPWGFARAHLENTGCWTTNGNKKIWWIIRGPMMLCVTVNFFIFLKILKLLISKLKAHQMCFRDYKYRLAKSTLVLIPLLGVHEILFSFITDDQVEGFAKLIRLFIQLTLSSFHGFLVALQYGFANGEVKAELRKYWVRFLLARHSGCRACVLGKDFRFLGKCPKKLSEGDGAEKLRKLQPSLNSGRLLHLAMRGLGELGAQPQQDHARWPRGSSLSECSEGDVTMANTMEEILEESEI


Assays:
CLR = CLR (Homo sapiens, UniProt Q16602); assay: BRET GPCR–RAMP interaction; type: binding; conditions: COS-7; receptor-Rluc8:RAMP-Ypet 1:0.25 to 1:16; pH 7.4, 37 °C; mean ± SEM n≥3
Sequence of CLR (Q16602 23-461): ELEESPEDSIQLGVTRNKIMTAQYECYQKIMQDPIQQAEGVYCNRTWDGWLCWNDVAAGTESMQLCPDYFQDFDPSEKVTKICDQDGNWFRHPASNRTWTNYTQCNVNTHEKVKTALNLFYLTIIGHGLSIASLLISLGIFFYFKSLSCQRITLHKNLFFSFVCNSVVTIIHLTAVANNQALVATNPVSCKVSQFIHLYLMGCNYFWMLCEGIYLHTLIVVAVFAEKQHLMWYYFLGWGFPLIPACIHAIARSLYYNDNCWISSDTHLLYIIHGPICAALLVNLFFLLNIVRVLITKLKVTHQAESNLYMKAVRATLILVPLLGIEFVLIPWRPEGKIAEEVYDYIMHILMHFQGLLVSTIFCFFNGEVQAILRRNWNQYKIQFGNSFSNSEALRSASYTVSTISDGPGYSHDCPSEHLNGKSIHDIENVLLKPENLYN

GCGR [1] = molecular target: T5, GCGR (Homo sapiens, UniProt P47871); assay: BRET GPCR–RAMP interaction; type: binding; conditions: COS-7; receptor-Rluc8:RAMP-Ypet 1:0.25 to 1:16; pH 7.4, 37 °C; mean ± SEM n≥3
T5 sequence (P47871 26-477, species assumed): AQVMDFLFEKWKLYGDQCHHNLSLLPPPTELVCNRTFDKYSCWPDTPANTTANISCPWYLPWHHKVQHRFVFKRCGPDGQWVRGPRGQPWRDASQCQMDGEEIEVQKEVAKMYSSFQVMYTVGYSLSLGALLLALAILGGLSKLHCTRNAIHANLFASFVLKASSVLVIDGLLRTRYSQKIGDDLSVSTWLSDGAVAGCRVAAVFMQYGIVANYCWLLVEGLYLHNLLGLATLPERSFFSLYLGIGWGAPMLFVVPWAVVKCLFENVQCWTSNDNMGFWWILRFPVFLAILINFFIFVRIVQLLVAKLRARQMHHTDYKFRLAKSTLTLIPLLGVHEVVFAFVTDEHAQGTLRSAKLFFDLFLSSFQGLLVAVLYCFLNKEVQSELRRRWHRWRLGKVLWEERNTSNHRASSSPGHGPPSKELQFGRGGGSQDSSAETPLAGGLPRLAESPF

GHRHR [2] = molecular target: T1, GHRHR; assay: BRET GPCR–RAMP interaction; type: binding; conditions: COS-7; receptor-Rluc8:RAMP-Ypet 1:0.25 to 1:16; pH 7.4, 37 °C; mean ± SEM n≥3
SV1 [3] = molecular target: T2, SV1; assay: BRET GPCR–RAMP interaction; type: binding; conditions: COS-7; receptor-Rluc8:RAMP-Ypet 1:0.25 to 1:16; pH 7.4, 37 °C; mean ± SEM n≥3
GIPR = molecular target: T3, GIPR; assay: BRET GPCR–RAMP interaction; type: binding; conditions: COS-7; receptor-Rluc8:RAMP-Ypet 1:0.25 to 1:16; pH 7.4, 37 °C; mean ± SEM n≥3
GLP-1R = GLP-1R (Homo sapiens, UniProt P43220); assay: BRET GPCR–RAMP interaction; type: binding; conditions: COS-7; receptor-Rluc8:RAMP-Ypet 1:0.25 to 1:16; pH 7.4, 37 °C; mean ± SEM n≥3
Sequence of GLP-1R (P43220 24-463): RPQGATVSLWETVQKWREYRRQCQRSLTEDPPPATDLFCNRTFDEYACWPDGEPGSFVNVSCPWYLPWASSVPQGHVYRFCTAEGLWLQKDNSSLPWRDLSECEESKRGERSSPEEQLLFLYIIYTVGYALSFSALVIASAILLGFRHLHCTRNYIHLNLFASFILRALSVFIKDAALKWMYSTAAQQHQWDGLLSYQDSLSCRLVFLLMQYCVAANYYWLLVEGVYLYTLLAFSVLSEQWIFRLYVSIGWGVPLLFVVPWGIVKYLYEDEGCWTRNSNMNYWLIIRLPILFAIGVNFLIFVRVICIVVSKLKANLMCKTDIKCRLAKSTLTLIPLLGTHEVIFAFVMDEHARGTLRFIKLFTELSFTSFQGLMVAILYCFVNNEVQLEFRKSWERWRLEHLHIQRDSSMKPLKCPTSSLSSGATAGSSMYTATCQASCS

GLP-2R [4] = molecular target: T4, GLP-2R; assay: BRET GPCR–RAMP interaction; type: binding; conditions: COS-7; receptor-Rluc8:RAMP-Ypet 1:0.25 to 1:16; pH 7.4, 37 °C; mean ± SEM n≥3
SCTR = assay: BRET GPCR–RAMP interaction; type: binding; conditions: COS-7; receptor-Rluc8:RAMP-Ypet 1:0.25 to 1:16; pH 7.4, 37 °C; mean ± SEM n≥3
COS-7 cells = assay: RAMP cell surface expression; type: cell-based
GHRHR [5] = molecular target: T1, GHRHR; assay: cAMP accumulation; conditions: COS-7; RAMP3
SV1 [6] = molecular target: T2, SV1; assay: cAMP accumulation; conditions: COS-7; RAMP3
GLP-2R [7] = molecular target: T4, GLP-2R; assay: Gαq activation; type: cell-based; conditions: HEK293A; RAMP2
GCGR [8] = molecular target: T5, GCGR; conditions: CHO-K1 ref [38]; cited from earlier work
GCGR [9] = molecular target: T5, GCGR; conditions: CHO-K1 ref [38]; cited from earlier work; remark: listed apart in the source

| Bmax (maximum measured BRET value) (CLR) | Bmax (maximum measured BRET value) (GCGR [1]) | Bmax (maximum measured BRET value) (GHRHR [2]) | Bmax (maximum measured BRET value) (SV1 [3]) | Bmax (maximum measured BRET value) (GIPR) | Bmax (maximum measured BRET value) (GLP-1R) | Bmax (maximum measured BRET value) (GLP-2R [4]) | effect of RAMP on cAMP response (GHRHR [5]) | effect of RAMP on cAMP response (SV1 [6]) | effect of RAMP on potency, Gαq activation (GLP-2R [7]) | Molecule | Bmax (maximum measured BRET value) (SCTR) | RAMP cell surface expression (COS-7 cells; co-expression with GCGR, FLAG-RAMP) | RAMP cell surface expression (COS-7 cells; co-expression with SCTR, FLAG-RAMP, effect of receptor on RAMP3) | RAMP cell surface expression (COS-7 cells; co-expression with SV1, FLAG-RAMP) | RAMP cell surface expression (COS-7 cells; co-expression with glucagon receptor family members, FLAG-RAMP) | Gαq signaling (GCGR [8]) | β-arrestin recruitment (GCGR [9]) |
| --- | --- | --- | --- | --- | --- | --- | --- | --- | --- | --- | --- | --- | --- | --- | --- | --- | --- |
| 0.511 ± 0.058 | 1.102 ± 0.165 | 0.948 ± 0.139 | 1.842 ± 0.754 | 0.729 ± 0.061 | 0.862 ± 0.100 | 0.689 ± 0.128 | no effect | marked response | – | receptor activity-modulating protein 3 (protein, left off: Ypet, C-terminal, kept) RAGGCNETGMLERLPLCGKAFADMMGKVDVWKWCNLSEFIVYYESFTNCTEMEANVVGCYWPNPLAQGFITGIHRQFFSNCTVDRVHLEDPPDEVLIPLIVIPVVLTVAMAGLVVWRSKRTDTLL | 0.995 ± 0.058 | negative | negative | negative | – | – | – |
| 0.468 ± 0.042 | 0.578 ± 0.072 | 0.393 ± 0.025 | 0.843 ± 0.102 | 0.474 ± 0.122 | 0.397 ± 0.092 | 0.567 ± 0.234 | – | – | nominal reduction | receptor activity-modulating protein 2 (protein, left off: Ypet, C-terminal, kept) QPLPTTGTPGSEGGTVKNYETAVQFCWNHYKDQMDPIEKDWCDWAMISRPYSTLRDCLEHFAELFDLGFPNPLAERIIFETHQIHFANCSLVQPTFSDPPEDVLLAMIIAPICLIPFLITLVVWRSKDSEAQA | 0.434 ± 0.051 | – | – | – | negligible | attenuated Gαq signaling | abolished β-arrestin recruitment |
